Results on one molecule are retold here after patent US20200369747A1 (ICHNOS SCIENCES, published 2020).

This assay addresses CD3ε on Jurkat-NFAT responder cells (UniProt P07766 23-207). Briefly: cell-based or functional assay.

Sequence of CD3ε on Jurkat-NFAT responder cells (P07766 23-207): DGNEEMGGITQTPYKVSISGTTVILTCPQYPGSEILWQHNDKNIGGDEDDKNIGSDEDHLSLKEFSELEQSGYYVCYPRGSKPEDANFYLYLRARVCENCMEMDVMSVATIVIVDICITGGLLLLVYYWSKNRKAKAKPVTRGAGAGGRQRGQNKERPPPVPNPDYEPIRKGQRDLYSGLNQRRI

B1: BEAT®3 (bispecific antibody, human IgG1, kappa, L234A L235A)
chain 1: EVQLVESGGGLVQPGGSLRLSCAASGFTFNTYAMNWVRQAPGKGLEWVARIRSKYNNYATYYADSVKSRFTISRDDSKNTLYLQMNSLRAEDTAVYYCVRHGNFGNSYVSYFAYWGQGTTVTVSSGGGGSGGGGSGGGGSEIVVTQSPATLSVSPGERATLSCRSSTGAVTESNYANWVQEKPGQAFRGLIGGANKRAPGVPARFSGSLSGDEATLTISSLQSEDFAVYYCALFYSNTWVFGQGTKLEIKGGGGTQVQLQESGPGLVKPSETLSLTCTVSGGSVSSGDYYWTWIRQSPGKGLEWIGHIYYSGNTNYNPSLKSRLTISIDTSKTQFSLKLSSVTAADTAIYYCVRDRVTGAFDIWGQGTMVTVSSASTKGPSVFPLAPSSKSTSGGTAALGCLVKDYFPEPVTVSWNSGALTSGVHTFPAVLQSSGLYSLSSVVTVPSSSLGTQTYICNVNHKPSNTKVDKKVEPKSCDKTHTCPPCPAPEAAGGPSVFLFPPKPKDTLMISRTPEVTCVVVDVSHEDPEVQFKWYVDGVEVHNAKTKPREEQYNSTFRVVSVLTVLHQDWLNGKEYKCKVSNKALPAPIEKTISKTKGQPREPAVYTLPPSREEMTKNQVKLVCLVTGFYPSDIAVEWESSGQPENNYYTTPPMLDSDGSFSLVSWLNVDKSRWQQGNIFSCSVMHEALHNRFTQKSLSLSPG
chain 2: not shown
chain 3: DKTHTCPPCPAPEAAGGPSVFLFPPKPKDTLMISRTPEVTCVVVDVSHEDPEVKFNWYVDGVEVHNAKTKPREEQYNSTYRVVSVLTVLHQDWLNGKEYKCKVSNKALPAPIEKTISKAKGQPREPEVATFPPSRDELTKNQVTLVCLVTGFYPSDIAVEWESNGQPENNYKTDPPLLESDGSFALSSRLRVDKSRWQQGNVFSCSVMHEALHNHYTQKSLSLSPG
As for B1, the “EC50 of NFAT-luciferase luminescence (Jurkat-NFAT responder cells co-incubated with SK-BR-3 target cells); sample: BEAT®3 High pH T2h” value was 0.0065 µg/ml and the “EC50 of NFAT-luciferase luminescence (Jurkat-NFAT responder cells co-incubated with SK-BR-3 target cells); sample: BEAT®3 High pH T4h” value was found to be 0.0074 µg/ml.
